Assay: yeast display, Sf9 membrane polyspecificity reagent, FACS + sequencing; frameworks hold sequencing errors
In short: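 In a synthetic yeast display library (Saccharomyces cerevisiae BJ5465), nanobody expression was induced with galactose for 36–48 hours. FACS gates were set low and high (top ~1%) using anti-HA fluorescence for expression and streptavidin fluorescence for binding of the Sf9 membrane reagent. Each polyreactivity label is drawn from the gate of origin.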

## QVQLVESGGGLVQAGGSLRLSCAASGSTFVRYAMGWYRQAPGKDRELVARISSAGSTNYADSVKGRFTISRDNAKNTVYLQMNSLKPEDTAVYYCAATTKAGVSSGQGDSWGQGTQVTVSS
  polyreactivity (PSR sort gate): low polyreactivity

## QVQLVESGGGLVQAGGSLRLSCAASGSILRYTMGWYRQAPGKEREWVAAITRSGTSTYYADSVKGRFTISRDNAKNTVYLQMNSLKPEDTAVYYCAASAGPRASYYYWGQGTQVTVSS
  polyreactivity (PSR sort gate): high polyreactivity

## QVQLVESGGGLVQAGGSLRLSCAASGSILKRYAMGWYRQAPGKERELVAAITRRGGSTYYADSVKGRFTISRDNAKNTVYLQMNSLKPEDTAVYYCNAYTYSATVPIFTNYGYWGQGTQVTVSS
  polyreactivity (PSR sort gate): high polyreactivity

## QVLQVESGGGVVQAGGSLRLSCSASGSTIGNKTMGWYRQAPGKEREFVAAITESGGGTYADSVKGRFTISRDNAKNTVYLQMNSLKPEDNAVYYSAAVWYIWPFAFYYWGEGTQVTVSS
  polyreactivity (PSR sort gate): high polyreactivity

## QVQLVESGGGLVQAGGSLRLSCAASGRIFYVYTLGWYRQAPGKERELVAAITSGGSTNYADSVKGRFTISRDNAKNTVYLQMNSLKPEDTAVYFCAKKAWVIYNRKFSSGYDYWGQGTQVTVSS
  polyreactivity (PSR sort gate): low polyreactivity

## QVQLVESGGGLVQAGGSLRLSCAASGRTFYTNAMGWSRQAPGKERELVAAISRGGGRTYYADSVKGRFTISRDNAKNTVYLQMNSLKPEDTAVYYCAASPYQGQGREYYYWGQGTQVTVSS
  polyreactivity (PSR sort gate): high polyreactivity

## QVQLVESGRGLVQAGGSLRLSCAASGSIFWENAMGWYRQAPGKERELVADITIGGSTNYADSVKGRFTISRDNAKNTVYLQMNILKPEDTAVYYCAAYYYWPKYWYWGYDDWGQGTQVTVSS
  polyreactivity (PSR sort gate): low polyreactivity

## QVQLVESGGGLVQAGGSLRLSCAASGFIFESNAMGWYIQAPGKERELVATITNGDRTYYADSVNGRFTISRDNAKNTVYLQMNSLKPEDTAVYYCNADFRAREVFLFDSWGQGTQVTVSS
  polyreactivity (PSR sort gate): low polyreactivity

## QVQLVESGGGLVQAGGSLRLSCAASGFTFGYNAMGWYRQAPGKERELVAAISWSGGTYYADSVKGRFTISRDNAKNTVYLQMNSLKPEDTAVYYCAAVVVYWTSQIYYDGYYYWGQGTQVTVSS
  polyreactivity (PSR sort gate): high polyreactivity

## QVQLVESGGGLVQAGGSLRLSCAASGRIFGTYGMGWYRQAPGKERELVAAINWRGGSTYYADSVKGRFTISRDNAKNTVYLQMNSLKPEDTAVYYCNARLYRNRLGYWGQGTQVTVSS
  polyreactivity (PSR sort gate): high polyreactivity

## QVQLVESGGGLVQAGGSLRLSCAASGRTFQGNTMGWYRQAPGKEREFVAAMSSRGGSTYYADSVKGRFTISRDNAKNTVYLQMNRLKPEDTAVYYCDARFSHGYDYWGQGTQVTVSS
  polyreactivity (PSR sort gate): high polyreactivity

## QVQLVESGGGLVQAGGSLRLSCAASGRTIVIYAMGWYRQAPGKERELVAAIRSGGRTNYADSVKVRFTISRDNAKNTVYLQMNSLIPEDTAVYYCATRGWLRSGYDYWGQGTQVTVSS
  polyreactivity (PSR sort gate): high polyreactivity

## QVQLVESGGGLVQAGGSLRLSCAASGRTFGGNAMGWYRQAPGKERELVAAITGRGGSTFYADSVKGRFTISRDNAKNTVYLQMNSLKPEDTAVYYCAKQFKRGYGYDYWGQGTQVTVSS
  polyreactivity (PSR sort gate): low polyreactivity

## QVQLVESGGGLVQAGGSLRLSCAASGSTFWEYVMGWYRQAPGKERELVAAISDSGGSTYYADSVKGRFTISRDNAKNTVYLQMNSLKPEDTAVYYCNADWSWYNYYDFDYWGQGTQVTVSS
  polyreactivity (PSR sort gate): low polyreactivity

## QVQLVESGGGLVQAGGSLRLSCSASGRFYVINYMGRYRQAPGKERELVAANTWGSSTYADSEKGRFTISRDNAKITVYFQMNSLKQEDTAVYYCSRDVYPSTWEYDYWGQGTQVTVSS
  polyreactivity (PSR sort gate): low polyreactivity

## QVQLVESGGGLVQAGGSLRLSCAASGLTFWPYVMGWYRQAPGKERELVAAIDDTGITYYADSVKGRFTISRDNEKNTVYLQMNTLKPEDTAVYYCATDWDYYFPWIYPSDAGPEDGYCGQGTQVTVSS
  polyreactivity (PSR sort gate): low polyreactivity

## QVQLHESGGGLVQPGGGLRLSCAPSGSISSTGFMGWNRKAPGKEREPVAAIAPGTTTYYADSVKGRFTISRDNAKNTVYLQMNSLRPEDTAVYYCAVFTDNRVAFLYWGQGTQVTVSS
  polyreactivity (PSR sort gate): low polyreactivity

## QVQLVESGGGLVQAGGSLRLSCAASGSTFEIYAMGWYRQAPGKERELVAAITRSGRTNYADSVKGRFTISRDNAKNTVYLQMNSLKPEDTAVYYCAAGVWGRDRKYGYWGQGTQVTVSS
  polyreactivity (PSR sort gate): high polyreactivity

## QVQLVESGGGLVQAGRSLRLSCAASVYILYHNAMGWYRQAPGKERELVAAISYSGGRTYYADSVKGRFTISRDNAKNTVYLQMNSLKPEDTSVYYCNALSVWRTGRGQEFDYWGQGTQVTVSS
  polyreactivity (PSR sort gate): high polyreactivity

## QVQLVESRGVLVQAGGSVRVSCAASGSTFTFNAMGWYRQAPGKVRELVADITSGGRTNYADSVKGRFTISRDNAKNTVYLQMNSLKPEDTAVYYCAARWWAHEYPGYDSWGQGTQVTVSS
  polyreactivity (PSR sort gate): low polyreactivity

## QVQLVESGGGLVQAGGSLRLSCAASGRIFLYNAMGWYRQAPGKERELVAAISYNSGRTYYADSVKGRFTISRDNAKNTVYLQMNSLKPEDTAVYYCAAVSYPAVYGFDYWGQVTQVTVSS
  polyreactivity (PSR sort gate): high polyreactivity

## QVQLVESGGGLVQAGGSLRLSCAASGSTFSVNAMGWYRQAPGKERELVAAITRSGGSTYYEDSVKGRFTISRENAKNTVYLQMNSLKPEDTAVYYCAAVIFPLGEYWGQGTQVTVSS
  polyreactivity (PSR sort gate): low polyreactivity

## QVQLVESGGGLVQAGGSLRLSCAASGFIFSPYAMGWYRQAPGKERELVATITWSGGRTYYADSVKGRFTISRDNAKNTVYLQMNSLKPEDTAVYYCNADGYQPALNKDFGYWGQGTQVTVSS
  polyreactivity (PSR sort gate): low polyreactivity

## QVQLVESGGVLVQAGGSLRLSCAASGSTFFLYMGWYRQAPGKERELVAAITVSGRSTYYADSVKGRFTISRDNAKNTVYLQMNSLKPEDTAVYYCNADWVLRYDYWGQGTQVTVSS
  polyreactivity (PSR sort gate): low polyreactivity

## QVQLVESVGGLVQAGGSLRLSCAASGRIFGGYALGWYRQAPGKERELVAAITSSGSTNYADSVKGRFTISRDNAMNTVYLQMNSLKQEDTAVYYCANDFKTVYYWWGMDYWGQGTQVTVSS
  polyreactivity (PSR sort gate): low polyreactivity

## QVQHVESGGGLVQAGGSLRLSCAASGSTFDYNAMGWYRQAPGKERELVAAISFIGGATDYADCVKGRFTISRDNAKNTVYLLMNSLKPEDSGVYYCAADTTSVKDGTFYSWGQGTQVTVSS
  polyreactivity (PSR sort gate): low polyreactivity

## QVQLVESGGGLVQAGGSLRLSCAASGFTFSWNTMGWYRQAPGKERELVATISGSGGRTYYADSVKGRFTISRDKAKNTVYLQLNSLKPEDTAVYYCAKRRASRYYWGQGTQVTVSS
  polyreactivity (PSR sort gate): high polyreactivity

## QVQLVESGGGLVQAGGSLRLSCAASGITFQYYAMGWYRQAPGKERELFARISSSGGRTFYADSVKGRFTISRDNAKNTVYLQMNSLKQEDTAVYYCAAGSLSLSNSTVWFEYDYWGQGTQVSVSS
  polyreactivity (PSR sort gate): high polyreactivity

## QVQLVESGGGLVQAGGSLRLSCAASGSTFGEYAMGWYRQAPGKERELVAVITSDDNTYYADSVKGRFTISRDNAKNTVYLQMNSLKPEDTAVYYCAARGYVLARSQQWRREYYWGQGTQVTVSS
  polyreactivity (PSR sort gate): high polyreactivity

## QVQLVESGGGLVQAGGSLRLSCAASGSTFYDNAMGWYRQAPGKERELVARIRWSGVRTYYADSVKGRFTISRDNAKNTVYLQMISLKPEDTAVYYCAAGRPRPHWWSLDYYYWGQGTQVTVSS
  polyreactivity (PSR sort gate): low polyreactivity

## QVQLVESGGGLVQAGGSLRLSCAASGRTFNWYAMGWYRQTPGKERELVAGITRIGTTTYYADSVKGRFTISRDNAKITVYLQMNSLKPEDTAVYYCASDQRKLGADFDSWGQGTQVTVSS
  polyreactivity (PSR sort gate): high polyreactivity

## QVQLVESGGGLVQAGGSLRVSCAASGITFNEYAMGWYRQAPGKEREFVAAITFSGDSTYADSVKGRFTISRDNAKNTVYLQMNSLKPEDTAVYYCAKRGGRQTYYYWGQGTQVTVSS
  polyreactivity (PSR sort gate): high polyreactivity

## QVQLVESGGGLVQAGGSLRLSCAASGRTFYVYAMGWYRQAPGNERELVATISRSGGGTYYADSVKGRFTISRDNAKNTVYLQMNSLTPEDTAVYYCAAKPYRRDYGYWGQGTQVTVSS
  polyreactivity (PSR sort gate): high polyreactivity

## QVQLVESGGGLVQAGGSLRLSCAASGRIFHFYAMGWYRQAPGKERELVAAISWSGGSTYYADSVKGRFTISRDNAKNTVYLQMNSLKPEDTAVYYCSKVRGEVAHRKVQYDYWGQGTQVTVSS
  polyreactivity (PSR sort gate): low polyreactivity

## QVQIVESGGGLVQAGGSLRISCAASGSTFPRNVMGWYRQAPGKERELVAAITSSGGSTYYADSVKGRFTISRDNAQHTVYLQMNSLKPADTAVYYCNAVSYYLGDDYWGQGTQVTVSS
  polyreactivity (PSR sort gate): high polyreactivity

## QVQLVESGGGLVQAGGSLRLSCAASGYTFGSYAMGWYRQAPGKERELVAAISGGGSTNYADSVKGRFTISRDNAKNTVYLQMNSLKPEDTAVYYCAAYPYLYPLRFEEYDHWGQGTQVTVSS
  polyreactivity (PSR sort gate): low polyreactivity

## QVQLVESGGGLVQAGGSLRLSCAASGITFSVYAMGWYRQAPGKERELVAAISGSGGSTYYADSVKGRFTISRDNAKNTVYLQMNSLKPEDTAVYYCAARLAQKYSPTRYNYWGQGTQVTVSS
  polyreactivity (PSR sort gate): high polyreactivity

## QVQLVESGGGLVQAGGSLRLSCAASGSTFRQNAMGWYRQAPGKERELVAAITYRVASTYYADSVKGRFTISRDNAKNTVYLQMNSLKPEDTAVYYCAARFGSGFNYWGQGTQVTVSS
  polyreactivity (PSR sort gate): high polyreactivity

## QVQLVESGGGLFQAGGSLRLSCAASGSTFKRYAMGWYRQAPGKERELVAAITLSGGNTYYADSVKGRFTISRYNAKNTVYLQMNSLKPEDTAVYYCAARRYRGYDYWGQGTQVTVSS
  polyreactivity (PSR sort gate): high polyreactivity

## QVQLVESGGGLVQAGGSLRLSCAASGSIFQHYSLGRSRQAPGKERELVAAISYDTTSTYYADSVKGRFTISRDNAKNNVYLQMNSLKPEDTAVYYCNTYPEVYGPFQYDYWGQGTQVTVSS
  polyreactivity (PSR sort gate): low polyreactivity

## QVQLVESGGGLVQAGGSLRLSCAASGRIFKWNAMGWYRQAPGKERELVAAISTSGGNTYYADSVKGRFTISRDYAKNTVYLQMNSLKPEDTAVYYCAATYPNSLRQVGYWGQGTQVTVSS
  polyreactivity (PSR sort gate): high polyreactivity

## QVQLVESGAGLVKAGGSLRLSCAASGRTLTGNDMGWYRQAPGKERELVAAITARGGSTYYADSVKGRFTISRDNAKNTVYLQMNSLKPEDTAVYYGATLPVRIRRDYWGQGTQVTVSS
  polyreactivity (PSR sort gate): high polyreactivity

## QVQLVESGGGLVQAGGSLRLSCAASGSTFKFYAMGWYRQAPGKERELVASITSSSGPTYYADSVKGRFTISRDNAKNTVYLQLNSLKPEDTAVDYCAKRPIRYYHLLRGNYWGQGTQVTVSS
  polyreactivity (PSR sort gate): low polyreactivity

— the nanobody polyreactivity screen of Harvey et al. (2022)
